Measured values reported in patent US20050048527.

Experiments:
[1] = target: CLEAVASE A/G nuclease (Thermus aquaticus) (UniProt P19821); experiment: cleavage_in_vitro; conditions: probe cleaved in 30 min
[2] = target: DNAPTth (Thermus thermophilus) (UniProt P52028); experiment: cleavage_in_vitro; conditions: probe cleaved in 30 min
[3] = target: PMP FEN1 (arch swap chimera) (UniProt O93634); experiment: cleavage_in_vitro; conditions: rate vs Pfu FEN1
[4] = target: MPM FEN1 (arch swap chimera) (Methanococcus jannaschii / Pyrococcus furiosus?) (UniProt Q58839); experiment: cleavage_in_vitro; conditions: rate vs Pfu FEN1
[5] = target: MAM FEN1 (arch swap chimera) (Methanococcus jannaschii / Archaeoglobus fulgidus?) (UniProt Q58839); experiment: cleavage_in_vitro; conditions: rate vs Pfu FEN1
[6] = target: PAP FEN1 (arch swap chimera) (Pyrococcus furiosus / Archaeoglobus fulgidus?) (UniProt O93634); experiment: cleavage_in_vitro; conditions: rate vs Pfu FEN1
[7] = target: Mja + P16 FEN1 (loop swap chimera) (Methanococcus jannaschii / Pyrococcus furiosus?) (UniProt Q58839); experiment: cleavage_in_vitro; conditions: rate vs Pfu FEN1
[8] = target: Pfu + M4 FEN1 (loop swap chimera) (UniProt O93634); experiment: cleavage_in_vitro; conditions: rate vs Pfu FEN1
[9] = target: T1, Mja FEN1 (Methanococcus jannaschii) (UniProt Q58839); experiment: cleavage_in_vitro; conditions: turnover
T1 sequence: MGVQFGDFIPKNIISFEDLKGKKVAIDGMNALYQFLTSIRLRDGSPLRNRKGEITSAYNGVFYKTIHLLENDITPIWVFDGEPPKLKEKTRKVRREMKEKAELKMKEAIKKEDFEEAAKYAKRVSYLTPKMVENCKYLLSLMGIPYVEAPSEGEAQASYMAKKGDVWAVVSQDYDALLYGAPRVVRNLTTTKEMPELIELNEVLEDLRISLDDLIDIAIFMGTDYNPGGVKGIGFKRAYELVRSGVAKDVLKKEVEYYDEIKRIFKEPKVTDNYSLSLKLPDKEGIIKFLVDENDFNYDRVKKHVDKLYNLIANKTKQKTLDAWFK

[10] = target: T2, Pfu FEN1 (Pyrococcus furiosus) (UniProt O93634); experiment: cleavage_in_vitro; conditions: turnover
T2 sequence: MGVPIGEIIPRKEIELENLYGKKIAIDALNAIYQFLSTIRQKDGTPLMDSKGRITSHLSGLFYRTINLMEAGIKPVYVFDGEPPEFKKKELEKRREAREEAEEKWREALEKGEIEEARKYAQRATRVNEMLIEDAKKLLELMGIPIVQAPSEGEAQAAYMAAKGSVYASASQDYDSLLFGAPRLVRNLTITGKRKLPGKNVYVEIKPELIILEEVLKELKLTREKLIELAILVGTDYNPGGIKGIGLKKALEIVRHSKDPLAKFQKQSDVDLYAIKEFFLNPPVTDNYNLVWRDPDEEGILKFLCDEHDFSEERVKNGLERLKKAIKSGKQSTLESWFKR

[11] = test system: Thermus aquaticus DNA polymerase
[12] = test system: CLEAVASE BN/thrombin nuclease
Chain of CLEAVASE BN/thrombin nuclease (chain, as listed by the source): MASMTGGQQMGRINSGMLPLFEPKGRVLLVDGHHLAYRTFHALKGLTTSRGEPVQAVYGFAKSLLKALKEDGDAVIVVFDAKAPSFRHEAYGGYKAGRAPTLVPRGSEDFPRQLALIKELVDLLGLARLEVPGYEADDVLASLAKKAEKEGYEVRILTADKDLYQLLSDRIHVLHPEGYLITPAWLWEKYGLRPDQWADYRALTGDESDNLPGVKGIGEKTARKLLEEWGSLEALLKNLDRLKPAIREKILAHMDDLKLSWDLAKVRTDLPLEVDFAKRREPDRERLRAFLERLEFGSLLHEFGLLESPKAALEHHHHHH

Chain of CLEAVASE BN nuclease (chain, as listed by the source): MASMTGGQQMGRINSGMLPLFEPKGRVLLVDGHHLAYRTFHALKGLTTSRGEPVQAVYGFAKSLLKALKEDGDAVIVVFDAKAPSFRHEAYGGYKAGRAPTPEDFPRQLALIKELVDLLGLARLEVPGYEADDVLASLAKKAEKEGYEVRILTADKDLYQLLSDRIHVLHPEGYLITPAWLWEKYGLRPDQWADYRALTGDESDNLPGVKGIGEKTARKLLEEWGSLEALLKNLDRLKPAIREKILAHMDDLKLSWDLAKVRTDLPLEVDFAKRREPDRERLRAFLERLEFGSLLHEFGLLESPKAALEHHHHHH
Chain of Thermus aquaticus DNA polymerase (chain, as listed by the source): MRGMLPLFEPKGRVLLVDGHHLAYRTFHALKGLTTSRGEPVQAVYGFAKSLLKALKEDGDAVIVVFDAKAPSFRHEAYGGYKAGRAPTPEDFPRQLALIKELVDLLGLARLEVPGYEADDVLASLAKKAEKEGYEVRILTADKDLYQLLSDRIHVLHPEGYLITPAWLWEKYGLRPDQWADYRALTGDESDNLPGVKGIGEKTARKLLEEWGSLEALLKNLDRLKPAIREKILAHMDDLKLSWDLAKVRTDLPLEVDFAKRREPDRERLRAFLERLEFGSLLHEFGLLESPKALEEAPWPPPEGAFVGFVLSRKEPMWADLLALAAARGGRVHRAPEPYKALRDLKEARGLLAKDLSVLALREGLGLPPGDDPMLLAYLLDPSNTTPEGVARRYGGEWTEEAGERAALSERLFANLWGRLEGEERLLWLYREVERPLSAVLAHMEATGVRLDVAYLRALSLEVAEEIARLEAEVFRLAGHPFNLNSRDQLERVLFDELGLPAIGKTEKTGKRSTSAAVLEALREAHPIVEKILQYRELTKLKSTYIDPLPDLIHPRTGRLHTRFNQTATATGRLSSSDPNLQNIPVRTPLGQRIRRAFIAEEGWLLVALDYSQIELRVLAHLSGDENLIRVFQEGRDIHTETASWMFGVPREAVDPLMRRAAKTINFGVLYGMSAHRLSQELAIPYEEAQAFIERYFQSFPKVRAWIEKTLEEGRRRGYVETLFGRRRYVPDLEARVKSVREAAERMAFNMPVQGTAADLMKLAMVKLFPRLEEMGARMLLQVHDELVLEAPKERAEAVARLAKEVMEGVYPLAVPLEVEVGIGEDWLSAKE
Chain of DNAPTth (Thermus thermophilus) (P52028 whole entry): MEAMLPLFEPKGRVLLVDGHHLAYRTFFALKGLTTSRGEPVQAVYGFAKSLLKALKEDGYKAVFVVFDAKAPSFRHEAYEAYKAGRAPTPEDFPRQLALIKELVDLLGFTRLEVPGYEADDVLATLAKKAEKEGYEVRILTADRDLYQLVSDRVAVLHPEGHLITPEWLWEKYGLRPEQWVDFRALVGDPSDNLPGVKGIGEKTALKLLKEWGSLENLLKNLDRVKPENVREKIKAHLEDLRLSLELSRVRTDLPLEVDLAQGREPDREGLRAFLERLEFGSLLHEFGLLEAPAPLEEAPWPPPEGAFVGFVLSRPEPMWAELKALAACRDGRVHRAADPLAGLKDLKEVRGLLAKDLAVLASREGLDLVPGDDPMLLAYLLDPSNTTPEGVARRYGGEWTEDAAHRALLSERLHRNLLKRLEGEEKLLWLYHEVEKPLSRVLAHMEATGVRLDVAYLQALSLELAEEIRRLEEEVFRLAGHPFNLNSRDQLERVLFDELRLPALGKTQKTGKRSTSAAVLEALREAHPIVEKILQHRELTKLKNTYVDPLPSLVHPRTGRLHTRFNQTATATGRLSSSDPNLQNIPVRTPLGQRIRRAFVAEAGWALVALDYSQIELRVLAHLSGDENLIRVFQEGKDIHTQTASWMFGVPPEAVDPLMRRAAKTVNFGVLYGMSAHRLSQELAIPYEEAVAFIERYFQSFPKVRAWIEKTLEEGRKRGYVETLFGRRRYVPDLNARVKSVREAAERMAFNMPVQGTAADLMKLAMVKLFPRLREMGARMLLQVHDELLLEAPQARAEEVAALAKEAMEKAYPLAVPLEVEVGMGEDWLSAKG

CCGGTCGTCCTGGCAATXCC / GTTTATCCAAGAAAGGACCCGGTC [HCV RNA target/probe/INVADER (DNA oligos listed)]
activity [1]: 32% | activity [2]: 70%

TTTTCAACTGCTTAGAGAATCTAAGCAGTTGGTGCGCCTCGTTAA / AACGAGGCGCACATT [X-structure 203-81-2/203-91-2]
cleavage rate ([3]; 3'-NH2 on first strand): 1.37 | cleavage rate ([4]; 3'-NH2 on first strand): 0.1 | cleavage rate ([5]; 3'-NH2 on first strand): 0.07 | cleavage rate ([6]; 3'-NH2 on first strand): 0.52 | cleavage rate ([7]; 3'-NH2 on first strand): 59 | cleavage rate ([8]; 3'-NH2 on first strand): 0.28

TTTTTCACGGCAGTTGGTGCGCCTCGGAACGAGGCGCACA / TTTTCAACTGCCGTGA [INVADER substrate 594-12-1/203-91-1]
cleavage rate [3]: 2.4 | cleavage rate [4]: 0.14 | cleavage rate [5]: 0.03 | cleavage rate [6]: 0.56 | cleavage rate [7]: 1.2 | cleavage rate [8]: 0.05

duplex length 0 substrate
activity [9]: 0 per min | activity [10]: 0 per min

duplex length 3 substrate
activity [9]: 29 per min | activity [10]: 1 per min

duplex length 4 substrate
activity [9]: 57 per min | activity [10]: 10 per min

duplex length 6 substrate
activity [9]: 51 per min | activity [10]: 44 per min

duplex length 8 substrate
activity [9]: 46 per min | activity [10]: 45 per min

factor Xa
protease digestion of the unmodified nuclease [11]: Both nuclease proteins were cut with factor Xa within the 5′ nuclease domain | protease digestion of the unmodified nuclease (CLEAVASE BN nuclease): Both nuclease proteins were cut with factor Xa within the 5′ nuclease domain

thrombin
thrombin digestion, SDS-PAGE with Coomassie stain [12]: CLEAVASE BN/thrombin nuclease is efficiently cleaved by thrombin | protease digestion of the unmodified nuclease [11]: neither nuclease was digested with large amounts of thrombin | protease digestion of the unmodified nuclease (CLEAVASE BN nuclease): neither nuclease was digested with large amounts of thrombin
